The source of these data is patent US20190322728A1 (PROTHENA BIOSCIENCES, published 2019).

The target in test [1] is T1, rTau: human tau with 4 microtubule binding repeats and no N-terminal inserts, containing a P301L mutation (human, UniProt P10636 2-758).
T1 construct: Expressed in E. coli and purified; It is the parent of the deletion mutants; also called full-length Tau; wild-type Tau (WT) of the blots
In words: Western blot of bacterial lysate, 16B5 at 0.2 ug/mL. (A western blot detects proteins with antibodies after separation by electrophoresis.)

Test [2] deals with T2, tau deletion mutant Δ5-24 (printed A5-24) (human, UniProt P10636-6 1-383).
T2 construct: Deletion mutant of rTau, tested in clarified bacterial lysate; The limits of the pieces are derived from the printed deletion
The test is described as above.

Test [3] deals with T3, tau deletion mutant Δ25-44 (printed A25-44) (human, UniProt P10636 1-758).
T3 construct: Deletion mutant of rTau, tested in clarified bacterial lysate; The limits of the pieces are derived from the printed deletion
As to the kind of experiment: Western blot of bacterial lysate.

In test [4] the target is T4, tau deletion mutant Δ30-39 (printed A30-39) (human, UniProt P10636 1-758).
T4 construct: Deletion mutant of rTau, tested in clarified bacterial lysate; The limits of the pieces are derived from the printed deletion
As to the kind of experiment: Western blot of bacterial lysate.

The target in test [5] is recombinant purified hTau-P301L (human) (UniProt P10636). As to the kind of experiment: SPR (Biacore T200), antibody held by a capture antibody on a CM5 chip, hTau-P301L as analyte. In general terms: Surface plasmon resonance follows binding to a sensor surface in real time, without labels.
For test [6], the target named is T5, tau deletion mutant Δ23-32 (printed A23-32) (human, UniProt P10636 1-758).
T5 construct: Deletion mutant of rTau, tested in clarified bacterial lysate; The limits of the pieces are derived from the printed deletion
As to the kind of experiment: Western blot of bacterial lysate, antibody at 0.2 µg/mL.

Test [7] has as its target T6, tau peptide, residues 24-44 of SEQ ID NO: 1 (human).
T6 construct: Tryptic fragment of rTau, precipitated by 16B5 and identified by MALDI-TOF/TOF
T6 peptide: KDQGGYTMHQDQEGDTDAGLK
In words: precipitation of protease fragments of rTau with 16B5, HPLC, MALDI-TOF/TOF.

Test [8] deals with T7, tau peptide, residues 25-44 of SEQ ID NO: 1 (human).
T7 construct: Proteolytic fragment (LysC and trypsin digests) of rTau, precipitated by 16B5 and identified by MALDI-TOF/TOF
T7 peptide: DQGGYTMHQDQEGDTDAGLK
The description is as above.

Chain of recombinant purified hTau-P301L (human) (P10636 other isoform, or with tags, fused parts or gaps P301L P301L): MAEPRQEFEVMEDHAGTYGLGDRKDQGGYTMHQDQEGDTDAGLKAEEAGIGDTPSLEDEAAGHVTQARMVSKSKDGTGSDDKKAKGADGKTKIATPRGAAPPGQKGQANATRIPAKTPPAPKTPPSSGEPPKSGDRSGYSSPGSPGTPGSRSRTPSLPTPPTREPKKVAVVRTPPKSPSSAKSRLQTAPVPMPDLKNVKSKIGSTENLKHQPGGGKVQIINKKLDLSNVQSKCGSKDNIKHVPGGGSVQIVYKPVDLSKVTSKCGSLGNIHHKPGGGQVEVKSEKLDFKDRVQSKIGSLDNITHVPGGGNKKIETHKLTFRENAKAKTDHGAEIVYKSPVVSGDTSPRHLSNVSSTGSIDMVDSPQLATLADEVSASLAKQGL
T3 sequence (P10636 other isoform, or with tags, fused parts or gaps mutant): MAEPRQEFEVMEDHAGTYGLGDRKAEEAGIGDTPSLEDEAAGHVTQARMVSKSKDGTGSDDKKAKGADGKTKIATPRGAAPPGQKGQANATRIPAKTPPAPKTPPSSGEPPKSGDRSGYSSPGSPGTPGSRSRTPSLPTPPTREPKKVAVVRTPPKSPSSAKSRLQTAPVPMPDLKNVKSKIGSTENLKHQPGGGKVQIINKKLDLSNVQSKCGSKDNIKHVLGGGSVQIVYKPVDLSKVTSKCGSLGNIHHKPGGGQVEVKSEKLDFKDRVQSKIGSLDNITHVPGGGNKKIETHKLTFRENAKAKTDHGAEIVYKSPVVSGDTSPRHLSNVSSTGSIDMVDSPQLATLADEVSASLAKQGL
T4 sequence (P10636 other isoform, or with tags, fused parts or gaps mutant): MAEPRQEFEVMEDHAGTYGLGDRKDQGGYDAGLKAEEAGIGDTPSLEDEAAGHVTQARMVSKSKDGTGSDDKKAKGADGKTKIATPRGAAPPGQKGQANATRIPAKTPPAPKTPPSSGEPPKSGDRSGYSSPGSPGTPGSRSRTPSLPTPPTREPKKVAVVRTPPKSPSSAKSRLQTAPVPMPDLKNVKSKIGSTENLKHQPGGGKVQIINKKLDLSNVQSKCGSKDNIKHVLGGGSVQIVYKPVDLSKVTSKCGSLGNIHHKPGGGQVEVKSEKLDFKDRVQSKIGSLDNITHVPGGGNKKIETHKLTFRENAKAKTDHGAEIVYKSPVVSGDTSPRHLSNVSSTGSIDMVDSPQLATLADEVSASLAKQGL
T1 sequence (P10636 other isoform, or with tags, fused parts or gaps P301L P301L limits assumed): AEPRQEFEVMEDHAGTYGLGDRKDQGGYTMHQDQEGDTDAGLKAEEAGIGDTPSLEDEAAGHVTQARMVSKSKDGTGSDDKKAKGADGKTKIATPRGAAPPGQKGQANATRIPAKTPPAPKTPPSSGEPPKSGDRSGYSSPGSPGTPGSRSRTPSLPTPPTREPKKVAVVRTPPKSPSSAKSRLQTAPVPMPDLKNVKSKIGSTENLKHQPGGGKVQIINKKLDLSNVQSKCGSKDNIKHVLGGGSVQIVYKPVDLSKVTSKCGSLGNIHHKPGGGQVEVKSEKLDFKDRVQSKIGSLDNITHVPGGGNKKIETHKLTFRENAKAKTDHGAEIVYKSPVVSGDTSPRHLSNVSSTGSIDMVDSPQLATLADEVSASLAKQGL
T2 sequence (P10636 other isoform, or with tags, fused parts or gaps mutant): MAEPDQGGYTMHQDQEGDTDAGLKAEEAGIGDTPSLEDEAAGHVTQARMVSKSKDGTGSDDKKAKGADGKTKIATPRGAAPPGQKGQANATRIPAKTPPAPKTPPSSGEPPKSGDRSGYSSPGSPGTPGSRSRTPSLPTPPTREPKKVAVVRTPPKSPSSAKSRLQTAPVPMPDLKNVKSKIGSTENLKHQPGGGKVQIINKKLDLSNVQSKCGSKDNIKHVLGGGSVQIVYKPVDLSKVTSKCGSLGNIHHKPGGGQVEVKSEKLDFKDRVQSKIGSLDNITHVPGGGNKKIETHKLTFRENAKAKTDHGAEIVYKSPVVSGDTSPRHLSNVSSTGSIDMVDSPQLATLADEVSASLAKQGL
T5 sequence (P10636 other isoform, or with tags, fused parts or gaps mutant): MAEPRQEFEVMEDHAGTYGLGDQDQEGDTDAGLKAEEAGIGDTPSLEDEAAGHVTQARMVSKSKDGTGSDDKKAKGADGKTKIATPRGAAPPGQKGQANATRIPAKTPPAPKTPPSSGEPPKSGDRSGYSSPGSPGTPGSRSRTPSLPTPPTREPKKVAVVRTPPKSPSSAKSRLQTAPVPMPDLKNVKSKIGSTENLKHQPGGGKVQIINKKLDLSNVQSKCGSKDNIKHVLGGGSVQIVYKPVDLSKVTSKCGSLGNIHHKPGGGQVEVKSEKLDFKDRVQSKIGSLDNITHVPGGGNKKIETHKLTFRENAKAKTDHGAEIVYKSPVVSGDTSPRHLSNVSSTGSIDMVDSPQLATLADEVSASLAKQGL

B1: 16B5 monoclonal antibody (mouse) (antibody, V domains shown)
VH: QIQLVQSGPELKKPGETVKISCKASGYPFTYHGMDWVKQAPWGGLEWMGWINTYSGVPTYADDFKGRFAFSLETSVGTAYLQINNLKNEDTATYFCARRRDFTMDFWGQGTSVTVSS
VL: NIVLSQSPSSLAVSPGEKVTMSCKSSQSLLNSRTRKNYLAWFQQKPGQSPKLLIYWASTRESGVPDRFTGSGSGTDFTLTISSVQAEDLAVYYCKQSYTLRTFGGGTNLEIKR
notes: Mouse monoclonal antibody; The control 6F10 is called an IgG1 isotype control; also called Murine 16B5; pan antibody 16B5
As for B1, the binding result is reported as “binds” in test [1]; “binds” in test [2]; “no binding (tested: 0.2 µg/mL antibody)” in test [3]; “no binding (tested: 0.2 µg/mL antibody)” in test [4]; “binds” in test [6]; “binds” in test [7]. Further, in test [8], the binding result is reported as “binds”. Moreover, the Kd (in general, a measure of binding affinity in units of concentration) in test [5] stood at 2.32 pM.

B2: humanized 16B5, version H1L2 (antibody, V domains shown)
VH: QVQLVQSGSELKKPGASVKVSCKASGYPFTYHGMDWVRQAPGQGLEWMGWINTYSGVPTYADDFKGRFVFSLDTSVSTAYLQISSLKAEDTAVYFCARRRDFTMDFWGQGTTVTVSS
VL: NIVLTQSPDSLAVSLGERATINCKSSQSLLNSRTRKNYLAWFQQKPGQSPKLLIYWASTRESGVPDRFSGSGSGTDFTLTISSLQAEDVAVYYCKQSYTLRTFGGGTKVEIKR
For the molecule B2, in test [5], the Kd was determined as 2.94 pM; the koff (in general, a measure of how fast the partners let go of each other) was 0.000131 s⁻¹; the kon (in general, the rate constant with which the complex forms) turned out to be 4.47e+07 M⁻¹ s⁻¹.

B3: humanized 16B5, version H1L1 (antibody, V domains shown)
VH: QVQLVQSGSELKKPGASVKVSCKASGYPFTYHGMDWVRQAPGQGLEWMGWINTYSGVPTYADDFKGRFVFSLDTSVSTAYLQISSLKAEDTAVYFCARRRDFTMDFWGQGTTVTVSS
VL: NIVLTQSPDSLAVSLGERATINCKSSQSLLNSRTRKNYLAWFQQKPGQPPKLLIYWASTRESGVPDRFSGSGSGTDFTLTISSLQAEDVAVYYCKQSYTLRTFGGGTKVEIKR
Turning to B3, in test [5], the dissociation constant relative to the chimeric antibody (fold of chimeric 16B5) is 0.33.

B4: humanized 16B5, version H2L4 (antibody, V domains shown)
VH: EVQLVQSGSELKKPGASVKVSCKASGYPFTYHGMDWVRQAPGQGLEWMGWINTYSGVPTYADDFKGRFVFSLDTSVSTAYLQISSLKAEDTAVYFCARRRDFTMDFWGQGTTVTVSS
VL: NIVLTQSPSSLAVSLGERATINCKSSQSLLNSRTRKNYLAWFQQKPGQSPKLLIYWASTRESGVPDRFSGSGSGTDFTLTISSLQAEDVAVYYCKQSYTLRTFGGGTKVEIKR
For the molecule B4, in test [5], the Kd stood at 3.95 pM, the koff came to 0.000171 s⁻¹ and the on-rate constant (kon) came out at 4.34e+07 M⁻¹ s⁻¹.

B5: humanized 16B5, version H2L2 (antibody, V domains shown)
VH: EVQLVQSGSELKKPGASVKVSCKASGYPFTYHGMDWVRQAPGQGLEWMGWINTYSGVPTYADDFKGRFVFSLDTSVSTAYLQISSLKAEDTAVYFCARRRDFTMDFWGQGTTVTVSS
VL: NIVLTQSPDSLAVSLGERATINCKSSQSLLNSRTRKNYLAWFQQKPGQSPKLLIYWASTRESGVPDRFSGSGSGTDFTLTISSLQAEDVAVYYCKQSYTLRTFGGGTKVEIKR
Take B5: in test [5], the dissociation constant Kd worked out at 2.86 pM, the koff was 0.000138 s⁻¹ and the association rate constant (kon) was 4.85e+07 M⁻¹ s⁻¹.

B6: humanized 16B5, version H1L4 (antibody, V domains shown)
VH: QVQLVQSGSELKKPGASVKVSCKASGYPFTYHGMDWVRQAPGQGLEWMGWINTYSGVPTYADDFKGRFVFSLDTSVSTAYLQISSLKAEDTAVYFCARRRDFTMDFWGQGTTVTVSS
VL: NIVLTQSPSSLAVSLGERATINCKSSQSLLNSRTRKNYLAWFQQKPGQSPKLLIYWASTRESGVPDRFSGSGSGTDFTLTISSLQAEDVAVYYCKQSYTLRTFGGGTKVEIKR
For the molecule B6, in test [5], the Kd came to 3.15 pM, the koff was determined as 0.000137 s⁻¹ and the association rate constant (kon) was 4.36e+07 M⁻¹ s⁻¹.
